± gives the uncertainty stated by the source.

This series in a line: self-splicing fitness, log relative to wild type (ln ratio); higher = more splicing; Tetrahymena group I intron in knt gene, E. coli kanamycin selection, DiMSum; sequences stand for … in CUCUCU…GGAGGGAAAAGUUAUCAGGCAUGCACCUGGUAGCUAGUCUUUAAACCAAUAGAUUGCAUCGGUUUAAAAGGCAAGACCGUCAAAUUGCGGGAAAGGGGUCAACAGCCGUUCAGUACCAAGUCUCAGGGGAAACUUUGAGAUGGCCUUGCAAAGGGUAUGGUAAUAAGCUGACGGACAUGGUCCUAACCACGCAGCCAAGUCCUAAGUCAACAGAUCUUCUGUUGAUAUGGAUGCAGUUCACAGACUAAAUGUCGGUCGGGGAAGAUGUAUUCUUCUCAUAAGAUAUAGUCGGACCUCUCCUUAAUGGGAGCUAGCGGAUGAAGUGAUGCAACACUGGAGCCGCUGGGAACUAAUUUGUAUGCGAAAGUAUAUUGAUUAGUUUUGGAGUACUCGUGGUCG
The method in brief: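 Pooled colonies went to amplicon sequencing on an Illumina HiSeq 2500 after six replicate transformations. The plates were LB agar with 100 μg/mL carbenicillin, 50 μM IPTG and 0.2% rhamnose, with or without 25 μg/mL kanamycin, incubated overnight at 37°C or 30°C. The E. coli BL21(DE3) library had all eight P1ex-region intron nucleotides randomised, the intron placed in the knt kanamycin-resistance gene on pET-22b(+). DiMSum fitness is the error-weighted combination of replicate fold changes, kanamycin against none, normalised to wild type.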

For CACGAGCAAUAUUACGCCCU, the “self-splicing fitness (ln)” value (30 °C) is -2.92 ± 0.3.

Take CACGAGCAAUAUUACGCGAG: the “self-splicing fitness (ln)” value runs as follows: (30 °C) -1.52 ± 0.17; (37 °C) -2.5 ± 0.26. On the same counts, the results for CACGAGCAAUAUUACGCGUU are -4.28 ± 0.47 and -2.1 ± 0.18. With CACGAGCAAUAUUACGCUGU, the “self-splicing fitness (ln)” value is -3.55 ± 0.18 (30 °C) and -3.31 ± 0.18 (37 °C). As to CACGAGCAAUAUUACGGAAA, the “self-splicing fitness (ln)” value was -2.33 ± 0.22 (30 °C) and -1.8 ± 0.19 (37 °C).

As to CACGAGCAAUAUUACGGCCU, the “self-splicing fitness (ln)” value was -4.34 ± 0.36 (30 °C) and -3.06 ± 0.3 (37 °C). On the same counts, the results for CACGAGCAAUAUUACGGCGG are -2.37 ± 0.092 and -1.14 ± 0.11. As to CACGAGCAAUAUUACGGGCC, the “self-splicing fitness (ln)” value was -3.08 ± 0.38 (30 °C) and -2.24 ± 0.31 (37 °C). Consider CACGAGCAAUAUUACGGGGC, for which the “self-splicing fitness (ln)” value reads like this: (30 °C) -3.02 ± 0.14; (37 °C) -2.42 ± 0.19.

Consider CACGAGCAAUAUUACGGGGU, for which the “self-splicing fitness (ln)” value was -4.09 ± 0.23 (30 °C) and -2.67 ± 0.16 (37 °C). On the same counts, the results for CACGAGCAAUAUUACGGGUC are -4.31 ± 0.26 and -1.99 ± 0.15. On the same counts, the results for CACGAGCAAUAUUACGGUAC are -2.69 ± 0.21 and -2.81 ± 0.3. On to CACGAGCAAUAUUACGUACG, for which the “self-splicing fitness (ln)” value is, setting by setting: (30 °C) -2.38 ± 0.14; (37 °C) -0.807 ± 0.15.

Turning to CACGAGCAAUAUUACGUCCU, the “self-splicing fitness (ln)” value was -3.93 ± 0.3 (30 °C) and -2.81 ± 0.29 (37 °C). On the same counts, the results for CACGAGCAAUAUUACGUGAA are -3.63 ± 0.14 and -2.49 ± 0.12.

Take CACGAGCAAUAUUACGUUAG: the “self-splicing fitness (ln)” value runs as follows: (30 °C) -2.94 ± 0.16; (37 °C) -2.64 ± 0.18. On the same counts, the results for CACGAGCAAUAUUACGUUCG are -4.18 ± 0.29 and -2.75 ± 0.21. On the same counts, the results for CACUAGCAAUAUUACGAACA are -3.04 ± 0.42 and -2.83 ± 0.3. On the same counts, the results for CACUAGCAAUAUUACGAAUC are -3.91 ± 0.19 and -2.58 ± 0.22. For the sequence CACUAGCAAUAUUACGAGGU, the “self-splicing fitness (ln)” value reads like this: (30 °C) -5.22 ± 0.45; (37 °C) -2.6 ± 0.23.

CACUAGCAAUAUUACGAGUU: the “self-splicing fitness (ln)” value is, setting by setting: (30 °C) -1.83 ± 0.085; (37 °C) -0.633 ± 0.093. On the same counts, the results for CACUAGCAAUAUUACGAUAG are -0.974 ± 0.1 and -0.493 ± 0.11. Regarding CACUAGCAAUAUUACGAUCC, the “self-splicing fitness (ln)” value (30 °C) was -2.56 ± 0.33 and the “self-splicing fitness (ln)” value (37 °C) is -1.91 ± 0.34. On the same counts, the results for CACUAGCAAUAUUACGAUGC are -3.76 ± 0.18 and -3.05 ± 0.19. With CACUAGCAAUAUUACGAUGG, the “self-splicing fitness (ln)” value was -0.786 ± 0.062 (30 °C) and -0.324 ± 0.084 (37 °C). On the same counts, the results for CACUAGCAAUAUUACGCAGC are -3.17 ± 0.31 and -2.28 ± 0.37.

Regarding CACUAGCAAUAUUACGCCAU, the “self-splicing fitness (ln)” value was -3.88 ± 0.44 (30 °C) and -2.45 ± 0.28 (37 °C). Take CACUAGCAAUAUUACGCCGU: the “self-splicing fitness (ln)” value runs as follows: (30 °C) -1.95 ± 0.35; (37 °C) -1.18 ± 0.35. On the same counts, the results for CACUAGCAAUAUUACGCCUA are -3.31 ± 0.19 and -2.36 ± 0.16. With CACUAGCAAUAUUACGCCUC, the “self-splicing fitness (ln)” value (37 °C) was -1.72 ± 0.23.

For CACUAGCAAUAUUACGCGUA, the “self-splicing fitness (ln)” value (30 °C) is -1.84 ± 0.093 and the “self-splicing fitness (ln)” value (37 °C) is -0.0161 ± 0.075. On the same counts, the results for CACUAGCAAUAUUACGCGUC are -1.84 ± 0.1 and -2.75 ± 0.21. On the same counts, the results for CACUAGCAAUAUUACGCUUA are -2.65 ± 0.21 and -1.2 ± 0.13. On the same counts, the results for CACUAGCAAUAUUACGGCUA are -3.46 ± 0.47 and -2.1 ± 0.32.

Turning to CACUAGCAAUAUUACGGUCC, the “self-splicing fitness (ln)” value runs as follows: (30 °C) -2.4 ± 0.12; (37 °C) -1.29 ± 0.15. Take CACUAGCAAUAUUACGUAAG: the “self-splicing fitness (ln)” value was found to be 0.264 ± 0.061 (30 °C) and 0.0438 ± 0.073 (37 °C).

For the sequence CACUAGCAAUAUUACGUAGG, the “self-splicing fitness (ln)” value is -1.04 ± 0.1 (30 °C) and -0.696 ± 0.14 (37 °C). For CACUAGCAAUAUUACGUCAG, the “self-splicing fitness (ln)” value is -0.817 ± 0.062 (30 °C) and 0.566 ± 0.071 (37 °C).

The record behind these values is the supplement of paper PMC7877785.
